Experimental data from patent publication US20220283173A1.

Tests used:
[1] = molecular target: Anti-Mx1-AF488; assay: competitive TR-FRET; unlabelled MxA at 0.006 (unit µ/mL [sic]) displacing Mx1-L4 from Anti-Mx1-AF488
[2] = molecular target: Anti-Mx1-AF488; assay: competitive TR-FRET; unlabelled MxA at 0.024 (unit µ/mL [sic]) displacing Mx1-L4 from Anti-Mx1-AF488
[3] = molecular target: Anti-Mx1-AF488; assay: competitive TR-FRET; unlabelled MxA at 0.098 (unit µ/mL [sic]) displacing Mx1-L4 from Anti-Mx1-AF488
[4] = molecular target: Anti-Mx1-AF488; assay: competitive TR-FRET; unlabelled MxA at 0.391 (unit µ/mL [sic]) displacing Mx1-L4 from Anti-Mx1-AF488
[5] = molecular target: Anti-Mx1-AF488; assay: competitive TR-FRET; unlabelled MxA at 1.563 (unit µ/mL [sic]) displacing Mx1-L4 from Anti-Mx1-AF488
[6] = molecular target: Anti-Mx1-AF488; assay: competitive TR-FRET; unlabelled MxA at 6.250 (unit µ/mL [sic]) displacing Mx1-L4 from Anti-Mx1-AF488
[7] = molecular target: Anti-Mx1-AF488; assay: competitive TR-FRET; unlabelled MxA at 25.000 (unit µ/mL [sic]) displacing Mx1-L4 from Anti-Mx1-AF488
[8] = molecular target: Anti-Mx1-AF488; assay: competitive TR-FRET; unlabelled MxA at 0.000 (no competitor, the reference R0) with Mx1-L4 and Anti-Mx1-AF488

B1: Human myxovirus resistance protein A (MxA), unlabelled standard (protein)
chain: MVVSEVDIAKADPAAASHPLLLNGDATVAQKNPGSVAENNLCSQYEEKVRPCIDLIDSLRALGVEQDLALPAIAVIGDQSSGKSSVLEALSGVALPRGSGIVTRCPLVLKLKKLVNEDKWRGKVSYQDYEIEISDASEVEKEINKAQNAIAGEGMGISHELITLEISSRDVPDLTLIDLPGITRVAVGNQPADIGYKIKTLIKKYIQRQETISLVVVPSNVDIATTEALSMAQEVDPEGDRTIGILTKPDLVDKGTEDKVVDVVRNLVFHLKKGYMIVKCRGQQEIQDQLSLSEALQREKIFFENHPYFRDLLEEGKATVPCLAEKLTSELITHICKSLPLLENQIKETHQRITEELQKYGVDIPEDENEKMFFLIDKVNAFNQDITALMQGEETVGEEDIRLFTRLRHEFHKWSTIIENNFQEGHKILSRKIQKFENQYRGRELPGFVNYRTFETIVKQQIKALEEPAVDMLHTVTDMVRLAFTDVSIKNFEEFFNLHRTAKSKIEDIRAEQEREGEKLIRLHFQMEQIVYCQDQVYRGALQKVREKELEEEKKKKSWDFGAFQSSSATDSSMEEIFQHLMAYHQEASKRISSHIPLIIQFFMLQTYGQQLQKAMLQLLQDKDTYSWLLKERSDTSDKRKFLKERLARLTQARRRLAQFPG
- R/R0 [1]: 0.94
- R/R0 [2]: 0.99
- R/R0 [3]: 0.97
- R/R0 [4]: 0.89
- R/R0 [5]: 0.72
- R/R0 [6]: 0.43
- R/R0 [7]: 0.32
- R/R0 [8]: 1
